Measured values taken from patent US20220372155A1 (LYVGEN BIOPHARMA, published 2022).

Key:
[1] = target: T1, Human PD-L1 ECD protein (mouse IgG2a Fc tag) (human, UniProt Q9NZQ7 19-238); assay: bridging ELISA, coated CD40 ECD-His, soluble PD-L1 ECD-mFc
T1 construct: extracellular domain; also called recombinant human PD-L1; not shown: mouse IgG2a Fc tag

[2] = target: T2, Ly090 (human CD40 ECD protein with His tag) (human, UniProt P25942 21-193); assay: as above
T2 construct: extracellular domain; also called human CD40 ECD protein (His tag); recombinant human CD40; not shown: His tag

[3] = target: T3, human PD-L1 expressed on CHO cells (human, UniProt Q9NZQ7 19-290); assay: FACS, CHO cells
T3 construct: whole, on cells; also used for human PD-L1 on Raji cells in the reporter assay; also called cell surface PD-L1; Raji-PD-L1 cells

[4] = target: T4, human CD40 expressed on CHO cells (human, UniProt P25942 21-277); assay: FACS, CHO cells
T4 construct: whole, on cells; also used for the reporter cells over-expressing human CD40; also called cellular CD40; CHO-CD40 cells
T4 sequence (P25942 21-277): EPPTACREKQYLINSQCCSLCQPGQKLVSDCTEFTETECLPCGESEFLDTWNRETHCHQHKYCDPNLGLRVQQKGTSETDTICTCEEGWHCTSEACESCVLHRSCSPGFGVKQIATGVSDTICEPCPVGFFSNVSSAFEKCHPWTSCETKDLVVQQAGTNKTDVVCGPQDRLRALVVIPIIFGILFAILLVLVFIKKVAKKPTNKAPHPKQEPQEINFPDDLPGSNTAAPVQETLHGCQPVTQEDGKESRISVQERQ

T3 sequence (Q9NZQ7 19-290): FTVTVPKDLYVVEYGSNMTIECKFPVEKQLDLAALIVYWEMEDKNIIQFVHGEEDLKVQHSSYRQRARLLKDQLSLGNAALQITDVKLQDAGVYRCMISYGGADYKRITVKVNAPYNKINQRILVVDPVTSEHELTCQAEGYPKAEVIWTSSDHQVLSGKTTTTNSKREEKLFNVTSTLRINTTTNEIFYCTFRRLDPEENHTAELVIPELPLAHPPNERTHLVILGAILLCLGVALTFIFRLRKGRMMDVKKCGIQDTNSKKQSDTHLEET
T2 sequence (P25942 21-193): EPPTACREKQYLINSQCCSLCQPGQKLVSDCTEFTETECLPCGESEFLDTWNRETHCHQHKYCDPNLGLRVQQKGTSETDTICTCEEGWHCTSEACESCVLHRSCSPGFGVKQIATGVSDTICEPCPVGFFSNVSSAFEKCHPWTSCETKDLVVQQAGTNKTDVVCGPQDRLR
T1 sequence (Q9NZQ7 19-238): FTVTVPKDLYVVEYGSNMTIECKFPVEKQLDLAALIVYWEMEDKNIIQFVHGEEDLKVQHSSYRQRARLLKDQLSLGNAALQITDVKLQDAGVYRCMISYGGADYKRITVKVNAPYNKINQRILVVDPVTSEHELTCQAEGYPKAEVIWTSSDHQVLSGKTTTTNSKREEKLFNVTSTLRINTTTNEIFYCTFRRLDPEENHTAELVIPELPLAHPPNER

binding result [1]: binds
binding result [2]: binds
binding result [3]: binds
binding result [4]: binds
B1: Ly350 (bispecific antibody, human IgG1, kappa)
heavy: QVQLVQSGAEVKKPGASVKVSCKASGYTFTDFWMSWVRQAPGQGLEWMGQIYPNTGTTHSNEKFKGRVTMTRDTSTSTVYMELSSLRSEDTAVYYCARSYHISTTPNWFAYWGQGTLVTVSSASTKGPSVFPLAPSSKSTSGGTAALGCLVKDYFPEPVTVSWNSGALTSGVHTFPAVLQSSGLYSLSSVVTVPSSSLGTQTYICNVNHKPSNTKVDKKVEPKSCDKTHTCPPCPAPELLGPSVFLFPPKPKDTLMISRTPEVTCVVVDVSHEDPEVKFNWYVDGVEVHNAKTKPREEQYNSTYRVVSVLTVLHQDWLNGKEYKCKVSNKALPAPIEKTISKAKGQPREPQVYTLPPSREEMTKNQVSLTCLVKGFYPSDIAVEWESNGQPENNYKTTPPVLDSDGSFFLYSKLTVDKSRWQQGNVFSCSVMHEALHNHYTQKSLSLSPG
light: DIQMTQSPSSLSASVGDRVTITCKASQNVYKKLEWYQQKPGKVPKVLIYHTNILQTGVPSRFSGSGSGTDYTLTISSLQPEDVATYYCYQWNSGPTFGGGTKVEIKRTVAAPSVFIFPPSDEQLKSGTASVVCLLNNFYPREAKVQWKVDNALQSGNSQESVTEQDSKDSTYSLSSTLTLSKADYEKHKVYACEVTHQGLSSPVTKSFNRGECGGGGSGGGGSGGGGSGGGGSDIQMTQSPSSLSASVGDRVTITCLASEDISNDLAWYQQKPGKAPKLLIYFVDRLLDGVPSRFSGSGSGTDFTLTISSLQPEDFATYYCQQSYKYPPTFGQGTKLEIKGGGGSGGGGSGGGGSGGGGSEVQLVESGGGLVQPGGSLRLSCAASGFTFTNYGLHWVRQAPGKGLEWVSSISPSGGVTYYRDSVKGRFTISRDNSKNTLYLQMNSLRAEDTAVYYCAKPFLGWGGANWIAHWGQGTLVTVSS
notes: Ly076 HC (IgG1 mutated Fc) + Ly076 LC-TM559 scFv VL-VH
